Legend:
cryo-EM structure [1] = target: the molecule itself; assay: cryo-EM structure
cryo-EM structure [2] = target: the molecule itself; assay: cryo-EM structure; remark: listed apart in the source
negative-stain EM = target: the molecule itself; assay: negative-stain EM

B1: B. subtilis ClpCDWB (E280A/E618A), catalytically inactive mutant (enzyme, UniProt P37571 1-810, looked up)
chain: MMFGRFTERAQKVLALAQEEALRLGHNNIGTEHILLGLVREGEGIAAKALQALGLGSEKIQKEVESLIGRGQEMSQTIHYTPRAKKVIELSMDEARKLGHSYVGTEHILLGLIREGEGVAARVLNNLGVSLNKARQQVLQLLGSNETGSSAAGTNSNANTPTLDSLARDLTAIAKEDSLDPVIGRSKEIQRVIEVLSRRTKNNPVLIGEPGVGKTAIAEGLAQQIINNEVPEILRDKRVMTLDMGTVVAGTKYRGEFEDRLKKVMDEIRQAGNIILFIDALHTLIGAGGAEGAIDASNILKPSLARGELQCIGATTLDEYRKYIEKDAALERRFQPIQVDQPSVDESIQILQGLRDRYEAHHRVSITDDAIEAAVKLSDRYISDRFLPDKAIDLIDEAGSKVRLRSFTTPPNLKELEQKLDEVRKEKDAAVQSQEFEKAASLRDTEQRLREQVEDTKKSWKEKQGQENSEVTVDDIAMVVSSWTGVPVSKIAQTETDKLLNMENILHSRVIGQDEAVVAVAKAVRRARAGLKDPKRPIGSFIFLGPTGVGKTELARALAESIFGDEESMIRIDMSEYMEKHSTSRLVGSPPGYVGYDEGGQLTEKVRRKPYSVVLLDAIEKAHPDVFNILLQVLEDGRLTDSKGRTVDFRNTILIMTSNVGASELKRNKYVGFNVQDETQNHKDMKDKVMGELKRAFRPEFINRIDEIIVFHSLEKKHLTEIVSLMSDQLTKRLKEQDLSIELTDAAKAKVAEEGVDLEYGARPLRRAIQKHVEDRLSEELLRGNIHKGQHIVLDVEDGEFVVKTTAKTN
- stoichiometry N (cryo-EM structure [1]): 6
- stoichiometry N (cryo-EM structure [2]): 24
- stoichiometry N (negative-stain EM): 10
